Results taken from article PMC11635053, “Development of a homotrimeric PSMA radioligand based on the NOTI chelating platform” (EJNMMI Radiopharmacy and Chemistry, 2024).

How the values were obtained:
[1] = format: in vitro ADME; settings: 2 h
Description: 100 μL of the radiolabeling solution of each ^68Ga-labeled tracer were added to preheated (37 °C) 1000 μL human serum (male, AB, Sigma Aldrich, USA) in triplicates and incubated at 37 °C. At 1 and 2 h, 100 µL aliquots were taken, mixed with 100 µL ice-cold acetonitrile, and centrifuged at 4 G for 5 min at 4 °C. The corresponding filtrates were kept on ice until HPLC analysis. The supernatants were then analyzed by radio-RP-HPLC and fractions of intact compounds were calculated from the HPLC chromatograms. (gradient 4,Gamma-ray detector: 100–900 keV, injection volume: 20 μl). tR ([^68Ga]Ga-7) = 12.1 min, tR ([^68Ga]Ga-8) = 14.4 min, tR ([^68Ga]Ga-9) = 25.2 min.

in vivo = experiment: in vivo; set-up: species or system mice; settings: male, NOD/SCID, mouse, iv, total radioactivity
Description: The capability of [^68Ga]Ga-9 to delineate PSMA-expressing tumors in vivo was evaluated by small-animal PET imaging at 1 and 2 h p.i. For this, mice bearing LNCaP xenografts (n = 3) were injected with 1–3 MBq (250–500 pmol) [^68Ga]Ga-9 into a tail vein and subjected to micro-PET/CT imaging at 1 h post-injection (p.i.). PSMA specificity was confirmed by co-injection of 2-PMPA (1 µmol mouse^−1). […] LNCaP tumors were clearly visualized by [^68Ga]Ga-9 and only the kidneys and the bladder as the major excretory organs were visible. […] The kidney uptake was 67.86 ± 8.35% IA g^−1 (n = 3) in the normal group vs. 19.9 ± 4.43% IA g^−1 in the blocking group (n = 3). […] The blood uptake was relatively high at 1 h p.i. with 3.62 ± 0.42% IA g^−1. Uptake in the muscles was low with 0.32 ± 0.12% IA g^−1. […]
For PET imaging studies, mice were injected with 100 µL sterile saline formulations of 250–500 pmol [^68Ga]Ga-9 (1–3 MBq) by intravenous tail-vein injection and anesthetized with isoflurane (2–4% in air). […] Image counts per second per voxel (cps voxel^−1) were calibrated to activity concentrations (Bq mL^−1) by measuring a 3.5 cm cylinder phantom filled with a known concentration of radioactivity. […]
Competitive inhibition (blocking) studies were also performed in vivo and measured using static PET imaging to investigate the specificity of the radiotracers for PSMA. […]

Question: For O=C(O)CC[C@H](NC(=O)N[C@@H](CCCCNC(=O)[C@H](Cc1ccc2ccccc2c1)NC(=O)[C@H]1CC[C@H](CNC(=O)CCCCn2ccnc2CN2CCN(Cc3nccn3CCCCC(=O)NC[C@H]3CC[C@H](C(=O)N[C@@H](Cc4ccc5ccccc5c4)C(=O)NCCCC[C@H](NC(=O)N[C@@H](CCC(=O)O)C(=O)O)C(=O)O)CC3)CCN(Cc3nccn3CCCCC(=O)NC[C@H]3CC[C@H](C(=O)N[C@@H](Cc4ccc5ccccc5c4)C(=O)NCCCC[C@H](NC(=O)N[C@@H](CCC(=O)O)C(=O)O)C(=O)O)CC3)CC2)CC1)C(=O)O)C(=O)O [^nat/68Ga-9, metal not drawn], which “Metabolic stability in human serum” value [1] is on record?
Answer: Its value is “no significant degradation”.

Question: What about the tissue to tissue ratio at 1 h (in vivo; Tumor-to-kidney ratio) of the same molecule?
Answer: Its tissue to tissue ratio at 1 h is 0.24.

Question: What about the tissue to tissue ratio at 1 h (in vivo; Tumor-to-liver ratio) of the same molecule?
Answer: Its tissue to tissue ratio at 1 h is 5.17.
